Assays:
[1] = target: T1, human FUS (fused in sarcoma) protein
T1 chain: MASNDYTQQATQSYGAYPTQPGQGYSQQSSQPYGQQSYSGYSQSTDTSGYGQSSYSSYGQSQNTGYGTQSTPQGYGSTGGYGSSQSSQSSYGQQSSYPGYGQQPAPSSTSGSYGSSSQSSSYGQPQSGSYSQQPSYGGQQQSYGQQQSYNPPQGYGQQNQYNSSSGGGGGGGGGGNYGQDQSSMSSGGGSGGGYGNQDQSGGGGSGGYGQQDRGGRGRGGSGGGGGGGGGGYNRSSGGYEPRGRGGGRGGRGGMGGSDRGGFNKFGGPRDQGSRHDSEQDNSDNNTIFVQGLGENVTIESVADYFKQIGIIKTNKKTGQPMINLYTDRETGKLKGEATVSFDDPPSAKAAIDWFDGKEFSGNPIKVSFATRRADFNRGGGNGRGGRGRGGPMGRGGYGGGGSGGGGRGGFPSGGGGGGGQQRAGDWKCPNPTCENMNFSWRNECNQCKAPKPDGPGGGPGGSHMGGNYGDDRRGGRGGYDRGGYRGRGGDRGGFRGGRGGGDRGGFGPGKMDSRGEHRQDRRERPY

[2] = target: T2, human FUS (fused in sarcoma) protein (human, UniProt P35637 1-526); assay: immunofluorescence co-localisation in Drosophila brain neurons (anti-GstO2 / anti-FUS)
T2 construct: Human FUS was expressed in Drosophila neurons with the elav-Gal4 driver and seen as cytoplasmic aggregates; also called human wild-type FUS; FUS aggregate
T2 sequence: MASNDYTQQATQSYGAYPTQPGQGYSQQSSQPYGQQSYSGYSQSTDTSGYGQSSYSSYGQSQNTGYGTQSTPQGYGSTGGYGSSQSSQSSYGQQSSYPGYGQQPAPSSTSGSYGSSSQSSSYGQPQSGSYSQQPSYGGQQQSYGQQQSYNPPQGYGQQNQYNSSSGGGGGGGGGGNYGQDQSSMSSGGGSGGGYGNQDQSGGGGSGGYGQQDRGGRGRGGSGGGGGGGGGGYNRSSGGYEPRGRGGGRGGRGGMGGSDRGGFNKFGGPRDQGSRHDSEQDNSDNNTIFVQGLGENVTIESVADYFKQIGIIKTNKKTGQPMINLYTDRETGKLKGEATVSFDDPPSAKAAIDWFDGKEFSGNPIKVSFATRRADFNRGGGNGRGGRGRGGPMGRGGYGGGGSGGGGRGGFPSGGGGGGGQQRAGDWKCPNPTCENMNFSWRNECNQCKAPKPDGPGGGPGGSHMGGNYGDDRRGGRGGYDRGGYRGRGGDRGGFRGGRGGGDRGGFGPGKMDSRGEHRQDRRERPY

binding result [2]: binds
B1: Drosophila omega class glutathione transferase 2 (GstO2) (enzyme)
chain: MALPQKHFKRGSTKPELPEDGVPRFFSMAFCPFSHRVRLMLAAKHIEHHKIYVDLIEKPEWYKDFSPLGKVPALQLTGVKDQPTLVESLIIAEYLDQQYPQTRLFPTDPLQKALDKILIERFAPVVSAIYPVLTCNPNAPKDAIPNFENALDVFEVELGKRGTPYFAGQHIGIVDYMIWPWFERFPSMKINTEQKYELDTKRFEKLLKWRDLMTQDEVVQKTALDVQLHAEFQKSKTLGNPQYDIAFKGTP
notes: also called endogenous GstO2
FUS glutathionylation and FUS aggregate formation (double immunofluorescence of fly brain tissue, anti-FUS / anti-GSH) [1]: GstO2 coexpression inhibits an increase in formation of a FUS aggregate, and reduces FUS glutathionylation

From patent US20220026447A1 (SOONCHUNHYANG UNIVERSITY INDUSTRY ACADEMY COOPERATION …, published 2022)
